Residue numbers refer to the chain shown, from its start. Entries after “also recorded” stand apart in the source; their conditions may differ.
How the values were obtained:
[1] = test system: histone H4 (H4K5, H4K12); conditions: cited from earlier work; for enhancement of enzymatic activity of Hat1p: by facilitating H4 association with Hat1p; for enhancement of enzymatic activity of Hat1p / acetylation site specificity on H4 (literature): ref Parthun et al. 1996; for acetylation site specificity on H4 (literature): in vitro, complex purified from yeast extracts or recombinant yeast Hat1p
[2] = test system: histone H4 (H4K5, H4K12); conditions: no ref printed in the sentence; cited from earlier work
[3] = test system: hat1Δ yeast; assay: DNA damage sensitivity assay; format: cell-based; conditions: synthetic medium in the absence or presence of methyl methane sulfonate (MMS); H3K9,14R allele as sole H3; Supplemental Fig. S4
[4] = test system: histone H4 in nucleosomes; conditions: ref Kleff et al. 1995; Parthun et al. 1996; cited from earlier work

B1: RbAp46: human homolog of Hat2p, retinoblastoma-binding protein (protein, UniProt Q16576 2-425, looked up)
Histone-binding protein RBBP7: ASKEMFEDTVEERVINEEYKIWKKNTPFLYDLVMTHALQWPSLTVQWLPEVTKPEGKDYALHWLVLGTHTSDEQNHLVVARVHIPNDDAQFDASHCDSDKGEFGGFGSVTGKIECEIKINHEGEVNRARYMPQNPHIIATKTPSSDVLVFDYTKHPAKPDPSGECNPDLRLRGHQKEGYGLSWNSNLSGHLLSASDDHTVCLWDINAGPKEGKIVDAKAIFTGHSAVVEDVAWHLLHESLFGSVADDQKLMIWDTRSNTTSKPSHLVDAHTAEVNCLSFNPYSEFILATGSADKTVALWDLRNLKLKLHTFESHKDEIFQVHWSPHNETILASSGTDRRLNVWDLSKIGEEQSAEDAEDGPPELLFIHGGHTAKISDFSWNPNEPWVICSVSEDNIMQIWQMAENIYNDEESDVTTSELEGQGS
- enhancement of enzymatic activity of Hat1p [1]: significantly enhanced the enzymatic activity of Hat1p

B2: Hat2p: WD40 repeat protein, binding partner of Hat1p (protein)
chain: MENQEKPLSVDEEYDLWKSNVPLMYDFVSETRLTWPSLTVQWLPTPVQELDGGFIKQELIIGTHTSGEEENYLKFAEINLPKEILSNEDPQEEAGEEYQSSLPAPRSNIRITAKYEHEEEITRARYMPQDPNIVATINGQGTVFLYSRSEGLQSTLKFHKDNGYALSFSTLVKGRLLSGSDDHTVALWEVGSGGDPTKPVRTWNDLHSDIINDNKWHNFNKDLFGTVSEDSLLKINDVRANNTTIDTVKCPQPFNTLAFSHHSSNLLAAAGMDSYVYLYDLRNMKEPLHHMSGHEDAVNNLEFSTHVDGVVVSSGSDNRLMMWDLKQIGAEQTPDDAEDGVPELIMVHAGHRSSVNDFDLNPQIPWLVASAEEENILQVWKCSHSLPIVGGPPKVNKDIIS
modifications: left off: 6xHis, N-terminal, kept
- enhancement of enzymatic activity of Hat1p [1]: significantly enhanced the enzymatic activity of Hat1p

B3: recombinant human: recombinant human Hat1 (protein, UniProt O14929 2-419, looked up)
Histone acetyltransferase …: AGFGAMEKFLVEYKSAVEKKLAEYKCNTNTAIELKLVRFPEDLENDIRTFFPEYTHQLFGDDETAFGYKGLKILLYYIAGSLSTMFRVEYASKVDENFDCVEADDVEGKIRQIIPPGFCTNTNDFLSLLEKEVDFKPFGTLLHTYSVLSPTGGENFTFQIYKADMTCRGFREYHERLQTFLMWFIETASFIDVDDERWHYFLVFEKYNKDGATLFATVGYMTVYNYYVYPDKTRPRVSQMLILTPFQGQGHGAQLLETVHRYYTEFPTVLDITAEDPSKSYVKLRDFVLVKLCQDLPCFSREKLMQGFNEDMVIEAQQKFKINKQHARRVYEILRLLVTDMSDAEQYRSYRLDIKRRLISPYKKKQRDLAKMRKCLRPEELTNQMNQIEISMQHEQLEESFQELVEDYRRVIERLAQE
- acetylation of H4K5 and H4K12 (recombinant human Hat1, literature) [2]: can acetylate both H4K5 and H4K12

B4: W197E (protein)
chain: MSANDFKPETWTSSANEALRVSIVGENAVQFSPLFTYPIYGDSEKIYGYKDLIIHLAFDSVTFKPYVNVKYSAKLGDDNIVDVEKKLLSFLPKDDVIVRDEAKWVDCFAEERKTHNLSDVFEKVSEYSLNGEEFVVYKSSLVDDFARRMHRRVQIFSLLFIEAANYIDETDPSWQIYWLLNKKTKELIGFVTTYKYEHYLGAKSFDEDIDKKFRAKISQFLIFPPYQNKGHGSCLYEAIIQSWLEDKSITEITVEDPNEAFDDLRDRNDIQRLRKLGYDAVFQKHSDLSDEFLESSRKSLKLEERQFNRLVEMLLLLNNS
modifications: left off: GST (from the vector pGEX6p-1), end not stated, cleaved
- complementation of DNA damage sensitivity in hat1Δ yeast [3]: able to complement the DNA damage sensitivity in the hat1Δ yeast

B5: Hat1p/Hat2p complex: yeast histone acetyltransferase complex Hat1p/Hat2p (protein)
chain 1: B4 chain with E197W
chain 2: B2 chain
modifications: left off: 6xHis, N-terminal, state not stated
- acetylation site specificity on H4 (literature) [1]: specifically acetylated H4K12 residue; also recorded: highly specific for H4K12

B6: Hat1p: yeast Hat1p (1–320), type B histone acetyltransferase (protein)
chain: B4 chain with E197W
- acetylation site specificity on H4 (literature) [1]: not only able to acetylate H4K12 but also exhibited low activity to H4K5; also recorded: acetylated both H4K5 and H4K12 in vitro
- acetylation of H4K5 and H4K12 (recombinant yeast Hat1, literature) ([1]; recombinant yeast Hat1, no ref printed in the sentence): can acetylate both H4K5 and H4K12
- acetylation of histone H4 in nucleosomes [4]: cannot acetylate histone H4 in nucleosomes
